The values that follow come from a protein production outcome set (Wang et al. 2014).
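Also: failed if final PepcDB status was selected cloned or expressed and not failed if soluble or beyond.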

This series can be described thus: label from the status in PepcDB records.
As for “MANLKVGDVLEDRYRIETPIARGGMSTVYRCLDLRLGRSMALKVMEEDFVDDPIFRQRFRREARSMAQLNHPNLVNVYDFSATDGLVYLVMELITGGTLRELLAERGPMPPHAAVGVMRGVLTGLAAAHRAGMVHRDIKPDNVLINSDHQVKLSDFGLVRAAHAGQSQDNQIVGTVAYLSPEQVEGGEIGPASDVYSAGIVLFELLTGTTPFSGEDDLDHAYARLTEVVPAPSSLIDGVPSLIDELVATATSINPEDRFDDSGEFLSALEDVATELSLPAFRVPVPVNSAANRANAQVPDAQPTDMFTTHIPKTPEPDHTAIIPVASANETSILPAQNMAQNMAQNPLQPPEPDFAPEPPPDTALNIQDQELARADEPEINTVSNRSKLKLTLWSIFVVAVIAAVAVGGWWFGSGRYGEIPQVLGMDEVQAVAVVEEAGFVAVAEPQYDNEVPTGSIIGTEPSFGERLPRGEDVSVLVSQGRPVVPDLSEDRSLSTVREELEQRTFVWVDGPGEYSDDVPEGQVVSFTPSSGTQLDVGETVQIHLSRGPAPVEIPDVSGMGVDQATRVLERAGLSVERTEEGFDAETPNGDVYGTSPKVSTEVKRGTSVVLQVSNAISVPDVVGMTKDEATAALAEEGLVVASTSIIPGEAASSADAVVTVEPESGSRVDPAHPQVSLGLAGEIQVPSVVGRKVSDARSILEEAGLTLTTDADDNDRIYSQTPRARSEVSVGGEVTVRAF”, the protein production entry was “failed”.

As to “PCYDNTFANTCAECQQLIGHDSRELFYEDRHFHEGCFRCCRCQRSLADEPFTCQDSELLCNDCYCSAFS”, the protein production result was “not failed”.

Consider “MKFIRRCMMETRYTVRQAVEMTGVKSYVLRYWEEELELQIHRNELGHRYYTGYDIQLFLNIKELKKRGLQLRAIKNLIPQITASMTGFGESASTLLEGEVIDHAEVKTDRDLKEKISKKDEGKNDKILEFQAILERLITQELKAQNEDEERCRSLDYAIRRQQLARKEAAAAAEKKSGRRRRDK”, for which the protein production result is reported as “not failed”.

For “MDEFDYVRRKLIERILHLTEKQPVVRPLPGLTVGRRESPTEPSTYILPPSICIAVQGAKRVLIGEEYYVYDVENFLLNSFDVPVVAQVIEASKEKPYIGMTWEIDMEILMEIVVEQKLNTRPITSSRGTSLGKVTHQLLDAFRRMLELLDEPEHISALLPVIKKEIIYRLLVSEQGPRL”, the protein production result was “failed”.

As to “MLHSTAGWKNMDFKRFSLLIATRTILAMLTLIFLTQAIMSDGYHATVLLLSAVLLIQFFEITRFISKTNAELVRFFEAVRHADFSQRFELKSLGTGFDELGSTFTDILKRIQRVRSNQEAELRHIKAIIEHVPVPLLSIDHNGKITLWNNSVRRLFGTNAVTHIDDMAQFNEDFPKKLQSILAGERTLVHITIDDMEHKLIISATEITTATQQETLLSMQDIQSELALAQLQAWQDLVSVLTHEIMNSITPVASLAKTAVDLVQDVQEKTRTLPAITNEITEELDDVLGAVKTVARRSDGLMQFVTSYRRLTRLPSPNKKTISVATIFDHVTTLAKQNWQKDNIELTASITPQALDIHVDPDMIEQILLNLLLNAEHALITTAGVIEKKNSTPKIALNAFLNVRGHVIIEVADNGKGIENKNMTQIFVPFFTTKKEGSGVGLALTRQVMLAHNGKVAVRNNSQGGATFSLTF”, the protein production result is “failed”.

Consider “MEHKKALFCIFAIIHLFFWIIFSSLNHFKLDTFLSYEIAFFSVLLIIFASYLNYKKVIIKKSKNYEKDFNFISSLFIKKKQNLSKIIHFKVLKDDLKPNVKEKIHFFAMFFTLFKLMAYVVLVAGFLFLHRQDKLDIFAYICGISSLLVCVFIFILYIKKYESKKNY”, for which the protein production result is “failed”.

As for “MSSASGLRRGHPAGGEENMTETDAFYKREMFDPAEKYKMDHRRRGIALIFNHERFFWHLTLPERRGTCADRDNLTRRFSDLGFEVKCFNDLKAEELLLKIHEVSTVSHADADCFVCVFLSHGEGNHIYAYDAKIEIQTLTGLFKGDKCHSLVGKPKIFIIQACRGNQHDVPVIPLDVVDNQTEKLDTNITEVDAASVYTLPAGADFLMCYSVAEGYYSHRETVNGSWYIQDLCEMLGKYGSSLEFTELLTLVNRKVSQRRVDFCKDPSAIGKKQVPCFASMLTKKLHFFPKSNLEHHHHHH”, the protein production entry is listed as “failed”.

For the sequence “GDGLKVSFDVTNTGKVAGADTPQLYVTSGQRKAMLRLAGFQKVDLAPGETKRVTLNVEPRILADYDTAKPGWTIAAGTYPLYVGRNAGEPVLTGSAKLKSWSR”, the protein production entry is reported as “failed”.

As to “MPKVNLYATFRDLTGKSQLELPGATVGEVLENLVRAYPALKEELFEGEGLAERVSVFLEGRDVRYLQGLSTPLSPGATLDLFPPVAGGGFERTFGAFPPWLLERYLEEWGGTREGEGVYRLPGAVVRFREVEPLKVGSLSIPQLRVEVEGEEAERWFERIAFAASRGGG”, the protein production entry is listed as “not failed”.

On to “MSVSAELSQTIINNQVTSVLILDESLMIRYANPAAEQLFSQSAKRLMHQSLNHLVQHSSLDLQLLTQPLQSGQSITDSDVTLVIDSKPLMLEVTVSPISWHKELLLLAEMRTIG”, for which the protein production entry is on record as “failed”.

Regarding “MEFRLLHISDLHMIPGQETKKAWVSALDSLSPDLVINTGDNLSDEKAVPDVLRALGPLMNRPGAFVFGTNDYWAPRPVNPFGYLFGKKREVSHIDLPWRAMRAAFIEHGWQDANQKRLEFQVGSVRLAISGVDDPHHDLDDYTEIAGAPNVDADLSIALLHAPEPRVLAQFEADGYQLSLSGHTHGGQLEHHHHHH”, the protein production result is listed as “failed”.

In the case of “MRLINTTSSHPELVRNQLQNTDAKLVEVYSAGNTDVVFTKAPKHYELLISNKYRAIKDEELEAIREFFLKRKIDQSIIIQEQMKSLHTAKLIEISYPTTA”, the protein production entry is listed as “failed”.

For the sequence “MKIPSVFMLEQQKASLQLHVKQLANEAIQKSAPSAWFEVLYAEAQGDTTQIPWAKLTPHPYLQEWLTNHQPFPSGQKALVIGCGLGDDAEALAKLGFAVTAFDISPTAIAWCGQRFPNSNVNYIVADLLAIPPQWHLAFDFVFECRNIQALPLNIRAEVITSIASVVAPDGTLLLINRVRLEHHHHHH”, the protein production entry is recorded as “failed”.

With “ELEPGAFSELYQRYRHCDAPICLYEQGRDSFEDEGRWRLILCATCGSHGTHRDCSSLRPNSKKWECNECLPA”, the protein production entry was “not failed”.

Turning to “MSQDVSAQLQFRRSTMHWLRVARTAALALLLAPAVAPARAWLPPPGHVQMPLWPTVVPDALPHPRPESVGTGEGKRPWTKVGDVSRPTITFYAPKGQNTGAAAVVFPGGGYQVLAMDLEGTDICDWLSGRGITCVLLKYRVPNSGPTWTNGGRYYPKVQTALQDAQRALGLVRQHADDWGVDPHRVGVIGFSAGGHLVAAMSTHFTRRTYPSVDAADAQSCRPDFAIAVYPGHLWAHEDEDRAKRDPTHLPLRPDITVTADTPPTFLLQAEDDEVDGVSQSLAYYVALKQAGVPAEMHLYAEGGHAFGLRAGKLPIAQWPHLVETWLGTIGMLGTASAP”, the protein production result is on record as “failed”.

As to “MNNTIPRWRGFNLLEAFSIKSTGNFKEEDFLWMAQWDFNFVRIPMCHLLWSDRGNPFIIREDFFEKIDRVIFWGEKYGIHICISLHRAPGYSVNKEVEEKTNLWKDETAQEAFIHHWSFIARRYKGISSTHLSFNLINEPPFPDPQIMSVEDHNSLIKRTITEIRKIDPERLIIIDGLGYGNIPVDDLTIENTVQSCRGYIPFSVTHYKAEWVDSKDFPVPEWPNGWHFGEYWNREKLLEHYLTWIKLRQKGIEVFCGEMGAYNKTPHDVVLKWLEDLLEIFKTLNIGFALWNFRGPFGILDSERKDVEYEEWYGHKLDRKMLELLRKY”, the protein production result is given as “not failed”.

Take “MKLVKNLEIVESIFGDWDETIIWSCVQGIMGEVFVDSLDQPKSSLAKLGRKSSFGFLAGQPTLFLLEVCSGEDIILVPQHKGWSDLIESTYGQNAHSFKRYATKKDTLFERSRLEKFVTQLPNGFELRAIDEKVYNSCLEKEWSQDLVANYATYQYYKKQGIGYVVYYQGNIIAGASSYSTYKNGIEIEVDTHPDFRRRGLATIVAAQLILTCLDKGIYPSWDAHTRTSLNLSEKLGYEFSHEYIAYEID”: the protein production entry is given as “failed”.

For “MLDKVIYSLLRTQDPGLAQELYFRLQAKEQSFAEVAQKYSQGPESQTGGLVGPVEQSSLHPAMVQLLSSCQPGQISPPTRITEWYVIVRVEKFIPAQLEHHHHHH”, the protein production entry is “not failed”.

For “MVMPVKKVEKNILVLHGADKMFELVDKVEDYPHFLPWYSKTEVIGRSGNELKARLFMDYMHVRQSFATHNRNIPGREIRMELLEGPFKTLRGTWKFIDLGDDMCKIEFNLEYDFSNAVLSALISPVFNHLSVTLVEAFVKEADRRYA”, the protein production entry is “failed”.

With “MSEPVFPTPEAAEDAFYAAFEARSLDDMMAVWARDDHVACIHPLAAPLNGRAAVAAGWRSMFGAAGRFRLQVKAVHEIRQADHVIRIVDEFLTIGDETAPRPAILATNVYRREADGWRMVLHHASPLQVGAKAGADTPPVVFH”, the protein production result is on record as “not failed”.

As to “MYVLIGGAGLIGQQLARQVLDQGHTVAVIDQDPQVCKMVRDRLGAMAFEGSAVNTDILLEAGICRADAVAAVLRQDALNLALVTLACHYGVSRIISRISQQDFIEPMRLAGAHHIISTVDLVVSTMVNAIECPQVESMLHFEQGQIEVFKLTLDSQSPVIGRSVAAIAQDRNFPSSSLIIGYQSHPQADLVIPSGNTVLEANATVLLATKPGLVQSLVNFLMPSLFSPLEHHHHHH”, the protein production entry is on record as “failed”.

In the case of “SSEDLAKQLASYKAQLQQVEAALSGNGENEDLLKLKKDLQEVIELTKDLLSTQPSETLASSDSFASTQPTHSWKVGDKCMAVWSEDGQCYEAEIEEIDEENGTAAITFAGYGNAEVTPLLNLKPVEEGRKAKEDSGNKPMSKKEMIAQQREYKKKKALKKAQRIKELEQEREDQKVKWQQFNNRAYSKNKKGQVKRSIFASPESVTGKVGVGTCGIADKPMTQYQDTSKYNVRHLMPQ”, the protein production entry is “failed”.

For “MHAELYRTRKRWYESAWPGAGFWRGANDTLPVTNYITYPANFDQPDGQSLTPLTMAAMMGNVKFVKTLLSHYDVDLDRECNVIYDGMVVYGATALWVAAGMGHLQIVKMLVQAGAAINHNTKAQSSPLRAACYEGRLDIVEFLIDNGADVNATNLFNNNTLMIAAYKGHHLVVKTLLQNGSRANDQALCGATALHYAAESGHLDVVVALLDHGATLKKNELGITPALQAAERLHEDVLEAFIERPELMSLEEQITALELLGATYANDKIKYDVNKAYGYLLRAMQLRYSNPRGVIRKRVQPTVPAYDNWLETENLPELYAIKLNHHSIHMESLAIRERILGRNNPELPQAIIYRGAVMADQGRFYQCQVLWNYAIDLRMRNNVSVDRDLLRFAQLFAQILRVENHNLTLDHVLPVLAKCQQEIENNKFKIKEAKPNACPSLWQDQNNQNCITALYLIKIVTHLARRKKDQNIDEEHIQQLFLVVRKFIQNDTRLQDGQTLLHIAVNGVMPVDEFYTNEMCRFPCYATALVLVHCGASVVAVDSDRNTPLHILVTKVNTTQDRQAEMARILELFVEAGAHLDAVNAAGQTAATACKLPILANRLHAHQNAHTSLKCLAARSIATNRLNFKGLIPTQLEAFIQMHSVRKVLP”, the protein production entry is given as “failed”.

In the case of “MSQDGGQGRYAGRALAGGRYQLRDLLGEGGMASVHLAYDSVLDRQVAIKTLHTELGREQAFRERFRREAQAVAKLTHTNIVSVFDTGEDDLDGMTTPYIVMEYVEGRPLGSVLDEDVRQQGAMPADKALKITADVLAALEISHEMGLVHRDIKPGNVMMTKRGVVKVMDFGIARAMQSGVTSMTQTGMVVGTPQYLSPEQALGRGVDARSDLYSVGIMLFQLVTGRLPFDADSPLAIAYAHVQEQPVAPSAVNRALPPAVDALVARALKKNPNERFPSAEAMRDECLRVAASFQAAPPSIVPGAQTSSGAGVGSAVFPPVGQGTPAPTGPVQTPYQPTPSPGPNPYGTPAPAAHSPAYGYPQQAGYQTPAPAPYAQQQAAATPPPYNLTPSAQGSGSGSPGGKSNKPVIIGSIVVAVVAVGGLIGALLMNGGGDEDPEAGGGGSSTASVSASPSKAAGYRGPDKEKTIEKDKCTEPQESYNDPDKIQVPDFTFKYIGSVKECFNAAGWQMKVVEVDENTYGEGSVRDQFPTAGTDVDPENMPEIQLKVSTGNPPSE”, the protein production result is on record as “failed”.
